According to the supplement of paper PMC9112550, “Optimization of the antimicrobial peptide Bac7 by deep mutational scanning” (BMC Biology, 2022):

System: Escherichia coli TOP10
Assay: shrunken log2 fold change of peptide-encoding DNA abundance (4.5 h post-induction vs induction); higher = less antimicrobial activity (less host growth inhibition)
Details: time post-induction: 4.5 h; library: site-saturation at positions 5, 18, 19, 20
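Further: peptides expressed intracellularly from a pBAD plasmid library in pooled LB shake-flask culture, induced with 0.3% L-arabinose, DNA abundance read by NGS, three biological replicates, DESeq2 with apeglm shrinkage.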

| Sequence | shrunken log2 fold change |
| --- | --- |
| RRIRIRPPRLPRPRPRPEEFPRP | -0.0304 |
| RRIRIRPPRLPRPRPRPEEKPRP | 0.461 |
| RRIRIRPPRLPRPRPRPEEPPRP | -0.0444 |
| RRIRIRPPRLPRPRPRPEGKPRP | -0.0199 |
| RRIRIRPPRLPRPRPRPEHEPRP | -0.434 |
| RRIRIRPPRLPRPRPRPEHYPRP | -0.295 |
| RRIRIRPPRLPRPRPRPEIDPRP | -0.157 |
| RRIRIRPPRLPRPRPRPEIFPRP | -0.0951 |
| RRIRIRPPRLPRPRPRPEIWPRP | -0.18 |
| RRIRIRPPRLPRPRPRPEKMPRP | -0.165 |
| RRIRIRPPRLPRPRPRPELAPRP | 0.254 |
| RRIRIRPPRLPRPRPRPEMCPRP | 0.0321 |
| RRIRIRPPRLPRPRPRPENHPRP | -0.143 |
| RRIRIRPPRLPRPRPRPENYPRP | -0.405 |
| RRIRIRPPRLPRPRPRPEPKPRP | 0.475 |
| RRIRIRPPRLPRPRPRPEPYPRP | 0.0464 |
| RRIRIRPPRLPRPRPRPEQNPRP | -0.204 |
| RRIRIRPPRLPRPRPRPERFPRP | -0.0158 |
| RRIRIRPPRLPRPRPRPERMPRP | -0.0641 |
| RRIRIRPPRLPRPRPRPETLPRP | -0.102 |
| RRIRIRPPRLPRPRPRPETNPRP | -0.264 |
| RRIRIRPPRLPRPRPRPETPPRP | 0.207 |
| RRIRIRPPRLPRPRPRPEVCPRP | 0.503 |
| RRIRIRPPRLPRPRPRPEWEPRP | 0.068 |
| RRIRIRPPRLPRPRPRPEWTPRP | -0.0261 |

| Sequence | shrunken log2 fold change |
| --- | --- |
| RRIRIRPPRLPRPRPRPEYFPRP | -0.0312 |
| RRIRIRPPRLPRPRPRPEYKPRP | -0.978 |
| RRIRIRPPRLPRPRPRPFCFPRP | -0.33 |
| RRIRIRPPRLPRPRPRPFCHPRP | -0.302 |
| RRIRIRPPRLPRPRPRPFCLPRP | -0.739 |
| RRIRIRPPRLPRPRPRPFCNPRP | -0.553 |
| RRIRIRPPRLPRPRPRPFDHPRP | -0.225 |
| RRIRIRPPRLPRPRPRPFDKPRP | -0.177 |
| RRIRIRPPRLPRPRPRPFEEPRP | -0.569 |
| RRIRIRPPRLPRPRPRPFEPPRP | -0.204 |
| RRIRIRPPRLPRPRPRPFGLPRP | -0.129 |
| RRIRIRPPRLPRPRPRPFHWPRP | 0.0373 |
| RRIRIRPPRLPRPRPRPFIQPRP | -0.551 |
| RRIRIRPPRLPRPRPRPFKCPRP | 0.000802 |
| RRIRIRPPRLPRPRPRPFKLPRP | -0.597 |
| RRIRIRPPRLPRPRPRPFKSPRP | -0.023 |
| RRIRIRPPRLPRPRPRPFLFPRP | -0.586 |
| RRIRIRPPRLPRPRPRPFLGPRP | 0.00585 |
| RRIRIRPPRLPRPRPRPFNAPRP | -0.551 |
| RRIRIRPPRLPRPRPRPFNQPRP | -0.977 |
| RRIRIRPPRLPRPRPRPFQDPRP | 0.0408 |
| RRIRIRPPRLPRPRPRPFQWPRP | -0.192 |
| RRIRIRPPRLPRPRPRPFRHPRP | -0.219 |
| RRIRIRPPRLPRPRPRPFRKPRP | -0.169 |
| RRIRIRPPRLPRPRPRPFRRPRP | 0.017 |

| Sequence | shrunken log2 fold change |
| --- | --- |
| RRIRIRPPRLPRPRPRPFSIPRP | -0.643 |
| RRIRIRPPRLPRPRPRPFSWPRP | 0.0705 |
| RRIRIRPPRLPRPRPRPFTFPRP | -0.148 |
| RRIRIRPPRLPRPRPRPFVDPRP | -0.65 |
| RRIRIRPPRLPRPRPRPFVKPRP | -0.691 |
| RRIRIRPPRLPRPRPRPFWGPRP | -0.139 |
| RRIRIRPPRLPRPRPRPFYCPRP | -0.633 |
| RRIRIRPPRLPRPRPRPFYHPRP | -0.594 |
| RRIRIRPPRLPRPRPRPFYLPRP | -0.882 |
| RRIRIRPPRLPRPRPRPFYMPRP | -0.235 |
| RRIRIRPPRLPRPRPRPGAFPRP | -0.294 |
| RRIRIRPPRLPRPRPRPGDIPRP | -0.0899 |
| RRIRIRPPRLPRPRPRPGDKPRP | -0.218 |
| RRIRIRPPRLPRPRPRPGEPPRP | -0.0228 |
| RRIRIRPPRLPRPRPRPGESPRP | -0.0125 |
| RRIRIRPPRLPRPRPRPGFMPRP | -0.487 |
| RRIRIRPPRLPRPRPRPGFRPRP | 0.0935 |
| RRIRIRPPRLPRPRPRPGGFPRP | 0.179 |
| RRIRIRPPRLPRPRPRPGHDPRP | 0.144 |
| RRIRIRPPRLPRPRPRPGITPRP | -0.182 |
| RRIRIRPPRLPRPRPRPGKNPRP | -0.597 |
| RRIRIRPPRLPRPRPRPGLEPRP | -0.0336 |
| RRIRIRPPRLPRPRPRPGLLPRP | -0.0591 |
| RRIRIRPPRLPRPRPRPGNHPRP | -0.227 |
| RRIRIRPPRLPRPRPRPGNTPRP | -0.546 |
